The record followed here is patent publication US20180086841A1 (Merck Sharp & Dohme, published 2018).

Residue numbers refer to the chain shown, from its start.

The target in assay [1] is T1, human CD27 (human, UniProt P26842 21-260).
T1 construct: also called hCD27; HsCD27
As to the kind of experiment: cell ELISA on human CD27 CHOK1 cells, hIgG4.
Description: (§1) Purified antibodies were assayed for binding to human CD27 expressing CHOK1 cells using a cell-based ELISA format. Human CD27 expressing CHOK1 cells were plated in 96-well tissue-culture plates in 50 μl of DMEM/F12, 10% BCS (bovine calf serum) (CHO-K1 media). Cells were plated at either 2×10⁴ cells/well two days prior to the assay or 4×10⁴ cells/well one day prior to the assay. Media was removed from the wells prior to the assay followed by incubation of mAb in 100 μL fresh culture medium at a starting concentration of 10 μg/mL and 8 step 1:5 serial dilutions (hIgG4 antibodies) or starting concentration of 50 μg/mL and 8 step 1:5 serial dilutions (hIgG1 antibodies). The antibodies were incubated for 30-60 minutes at room temperature and washed 3 times with PBS/0.05% Tween 20 using a cell ELISA washing protocol on the Biotek EL405x Select CW plate washer.

Assay [2] has as its target T2, His9G-tagged human CD27 recombinant protein (human, UniProt P26842 21-191).
T2 construct: In-house, transient transfection of HEK293 cells; also called Human CD27/His
Description: SPR Biacore 4000, antibody captured on anti-human Fc, His9G-tagged CD27 injected, 1:1 fit.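 Note: Double-referenced SPR (blank anti-Fc surface and buffer injection subtracted), KD derived from association and dissociation rate constants, with human and cynomolgus CD27 as analytes.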
Description: (§2) Flow cell spots modified with anti-human Fc antibody but lacking CD27 antibodies were used as reference. […] The chip surface was regenerated with a 30 second injection of 3M MgCl₂ after each injection cycle.
(§3) Data were double referenced by subtracting the response from a blank surface and that from a buffer injection and used for analyzing the rate constant of association (kₐ) and dissociation (kd), and the equilibrium dissociation constant KD. The resulting data sets were fitted with a Langmuir 1:1 binding model using the Biacore 4000 BIAevaluation software, version 1.0 (GE/Biacore).

The target of assay [3] is T3, His9G-tagged cynomolgus CD27 recombinant protein (cynomolgus, limits assumed).
T3 construct: In-house, transient transfection of HEK293 cells; also called Cyno CD27/His
T3 chain: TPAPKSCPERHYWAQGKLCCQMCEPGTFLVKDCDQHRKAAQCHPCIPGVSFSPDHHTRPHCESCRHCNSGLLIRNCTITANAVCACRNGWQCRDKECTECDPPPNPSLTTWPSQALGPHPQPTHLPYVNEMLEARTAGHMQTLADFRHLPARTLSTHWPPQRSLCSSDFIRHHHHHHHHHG
The description is as above.
Description: as §2, §3

For assay [4], the target named is T1, human CD27. As to the kind of experiment: cell ELISA on transfected CHO cells.
Description: as §1
Assay [5] has as its target T1, human CD27. As to the kind of experiment: flow cytometry MFI, CD4+ T cells of human PBMC, N=2 donors.
Description: Labeled cells were washed by re-suspending them in 150 ul of staining buffer (SB) followed by centrifugation at 300 g for 5 minutes. Cells were then resuspended in 100 ul of SB containing primary anti-CD27 antibodies at various concentrations, incubated in the dark at 4° C. for 30 minutes, followed by washing and centrifugation steps as previously described. […] Cells were incubated for 30 minutes at 4° C. in the dark, followed by washing and centrifugation steps. Next, cells were stained with a cocktail of phenotypic antibodies for surface markers (CD3, CD4, CD8, CD11b) and incubated for 30 minutes at 4° C. in the dark, followed by washing and centrifugation steps. […] Samples were acquired in a LSR-Fortessa flow cytometer (BD Biosciences) using the high throughput sampler and data analyzed by FlowJo software (Tree Star Inc).
Assay [6] concerns the target T1, human CD27. As to the kind of experiment: flow cytometry MFI, CD8+ T cells of human PBMC, N=2 donors.

B1: hCD27.131A VH6VL6 huIgG4 (antibody, V domains shown)
VH: EIQLVQSGAEVKKPGASVKVSCKASGYTFTNYGMNWVKQAPGQGLKWMGWINTNTGEPTYAEEFKGRFTFTLDTSISTAYMELSSLRSEDTAVYYCAREGDAMDYWGQGTTVTVSS
VL: EIVLTQSPATLSLSPGERATLSCSASSSVSYMHWYQQKPGQAPKRWIYDTSKLASGVPARFSGSGSGTDYSLTISSLEPEDFAVYYCQQWNSYPFTFGQGTKLEIK
Consider B1, for which a half-maximal effect with human CD27 [1] (EC50) was put at 0.101 nM. Moreover, the Kd was 168 nM in assay [2] and 73 nM in assay [3].

B2: hCD27.131A VH8VL7 huIgG4 (antibody, V domains shown)
VH: B1 VH with S88N
VL: B1 VL with D69S, V84T
As to B2, the “fold EC50 against 131AVH6VL6-hIgG1” value with human CD27 [4] was at most 2 fold. This molecule yielded an EC50 with human CD27 [1] of 0.088 nM. Moreover, the Kd is 89.3 nM in assay [2] and 76.8 nM in assay [3].

B3: hCD27.131A VH6VL7 huIgG4 (antibody, V domains shown)
VH: B1 VH
VL: B1 VL with D69S, V84T
With B3, the “fold EC50 against 131AVH6VL6-hIgG1” value in the assay with human CD27 [4] is at most 2 fold. In the assay with human CD27 [1], this molecule yielded an EC50 of 0.132 nM. Also, the values for the Kd in assay [2] and in assay [3] were 108 nM and 82 nM, respectively.

B4: hCD27.131A VH8VL8 huIgG4 (antibody, V domains shown)
VH: B1 VH with S88N
VL: B1 VL with L13A, A19V, L77M
Take B4: the “fold EC50 against 131AVH6VL6-hIgG1” value in the assay with human CD27 [4] is at most 2 fold. Further, in the assay with human CD27 [1], the EC50 turned out to be 0.129 nM. The Kd amounted to 110 nM in assay [2] and 96.7 nM in assay [3].

B5: hCD27.131A VH7VL7 huIgG4 (antibody, V domains shown)
VH: B1 VH with V20I, I76A, S77T, M81L, L83I
VL: B1 VL with D69S, V84T
As to B5, the “fold EC50 against 131AVH6VL6-hIgG1” value with human CD27 [4] was at most 2 fold. In the assay with human CD27 [1], this molecule returned an EC50 of 0.084 nM. Besides, the values for the Kd in assay [2] and in assay [3] were 82.4 nM and 36.7 nM, respectively.

B6: hCD27.131A VH7VL8 huIgG4 (antibody, V domains shown)
VH: B1 VH with V20I, I76A, S77T, M81L, L83I
VL: B1 VL with L13A, A19V, L77M
With B6, the “fold EC50 against 131AVH6VL6-hIgG1” value with human CD27 [4] is at most 2 fold. In the assay with human CD27 [1], this molecule registered an EC50 of 0.086 nM. Moreover, the Kd was found to be 58.5 nM in assay [2] and 40.1 nM in assay [3].

B7: hCD27.131A VH6VL8 huIgG4 (antibody, V domains shown)
VH: B1 VH
VL: B1 VL with L13A, A19V, L77M
B7: the “fold EC50 against 131AVH6VL6-hIgG1” value in the assay with human CD27 [4] is at most 2 fold. In the assay with human CD27 [1], this molecule showed an EC50 of 0.103 nM. The Kd in assay [2] was 99.1 nM; in assay [3] it was 55.2 nM.

B8: hCD27.131A VH7VL6 huIgG4 (antibody, V domains shown)
VH: B1 VH with V20I, I76A, S77T, M81L, L83I
VL: B1 VL
Consider B8, for which, in the assay with human CD27 [4], the “fold EC50 against 131AVH6VL6-hIgG1” value was at most 2 fold. In addition, in the assay with human CD27 [1], the EC50 was found to be 0.042 nM. Also, the Kd in assay [2] is 65.7 nM; in assay [3], 58.2 nM.

B9: hCD27.131A VH8VL6 huIgG4 (antibody, V domains shown)
VH: B1 VH with S88N
VL: B1 VL
As for B9, the “fold EC50 against 131AVH6VL6-hIgG1” value with human CD27 [4] was at most 2 fold. Also, in the assay with human CD27 [1], the EC50 turned out to be 0.097 nM. For the same molecule, the Kd is 132 nM in assay [2] and 59.7 nM in assay [3].

B10: 131A chimera huIgG4 (antibody, V domains shown)
VH: QIQLVQSGPELKKPGETVKISCKASGYTFTNYGMNWVKQAPGKGLKWMGWINTNTGEPTYAEEFKGRFAFSLETSATTAYLQINNLKNEDTATYFCAREGDAMDYWGQGTSVTVSS
VL: QIVLTQSPAIMSASPGEKVTMTCSASSSVSYMHWYQQKSGTSPKRWIYDTSKLASGVPARFSGSGSGTSYSLTISSMEAEDAATYYCQQWNSYPFTFGSGTKLEIK
notes: also called chimeric mouse-human hCD27.131A huIgG4
For B10, the Kd stood at 43.4 nM in assay [2] and 31.2 nM in assay [3].

B11: Mouse Human Chimera CD27 131A-hIgG1 (antibody, V domains shown)
VH: B10 VH
VL: B10 VL
notes: also called chimeric mouse-human hCD27.131A huIgG1
Turning to B11, the EC50 with human CD27 [5] was found to be 0.0664 nM; with human CD27 [6], 0.0649 nM. Further, the Kd worked out at 29.2 nM in assay [2] and 40.4 nM in assay [3].
